Test results taken from US5766896A, “Method of producing iodine by use of a copper containing oxidase enzyme” (Novo Nordisk Biotech Inc., priority 1994, dated 1998).

How the values were obtained:
[1] = substrate: CCn1c(=NN=c2sc3cc(S(=O)(=O)O)ccc3n2CC)sc2cc(S(=O)(=O)O)ccc21; experiment: purified protein, by the assay type
[2] = substrate: COc1cc(C=NN=Cc2cc(OC)c(O)c(OC)c2)cc(OC)c1O; experiment: r-MtL syringaldazine oxidation; type: biochemical, Myceliophthora thermophila; settings: other: optimal pH (7); 30.0 °C
Procedure: The extinction coefficient of 36 mM^-1 cm^-1 is used to calculate the rate. Spectroscopic assays are conducted on either a spectrophotometer (Shimadzu UV160) or a microplate reader (Molecular Devices).

[3] = other: from dependence of I^- oxidation rates on ABTS concentration, 20.0 °C
[4] = other: optimal pH of 4.1, pH 4.1, 30.0 °C

B1: recombinant Myceliophthora thermophila laccase (r-MtL) (Thermothelomyces thermophilus ATCC 42464) (protein)
chain: QQSCNTPSNRACWTDGYDINTDYEVDSPDTGVVRPYTLTLTEVDNWTGPDGVVKEKVMLVNRPTIFADWGDTIQVTVINNLETNGTSIHWHGLHQKGTNLHDGANGITECPIPPKGGRKVYRFKAQQYGTSWYHSHFSAQYGNGVVGAIQINGPASLPYDTDLGVFPISDYYYSSADELVELTKNSGAPFSDNVLFNGTAKHPETGEGEYANVTLTPGRRHRLRLINTSVENHFQVSLVNHTMTIIAADMVPVNAMTVDSLFLGVGQRYDVVIEASRTPGNYWFNVTFGGGLLCGGSRNPYPAAIFHYAGAPGGPPTDEGKAPVDHNCLDLPNLKPVVARDVPLSGFAKRPDNTLDVTLDTTGTPLFVWKVNGSAINIDWGRPVVDYVLTQNTSFPPGYNIVEVNGADQWSYWLIENDPGAPFTLPHPMHLHGHDFYVLGRSPDESPASNERHVFDPARDAGLLSGANPVRRDVTMLPAFGWVVLAFRADNPGAWLFHCHIAWHVSGGLGVVYLERADDLRGAVSDADADDLDRLCADWRHYWPTNPYPKSDSGL
**Q.** For B1, which Km [1, 3] is on record?
**A.** Its Km is 6.4 ± 0.8 µM.

**Q.** What about the kcat [1, 3] of the same protein?
**A.** The kcat was 860±40 turnover per minute.

**Q.** And the Km ([1]; other: pH 4.1, pH 4.1)?
**A.** The Km was 5.6 ± 0.5 µM.

**Q.** What about the kcat ([1]; other: pH 4.1, pH 4.1) of the same protein?
**A.** Its kcat is 1460±31 turnover per minute.

**Q.** And the Km [2]?
**A.** Its Km is 10 µM.

**Q.** What about the kcat [2] of the same protein?
**A.** Its kcat is 400 turnover per minute.

B2: ceruloplasmin (porcine plasma) (Sus scrofa) (protein)
chain: KDKHYYIGIVETTWDYASDRGEKKLISVDKEQSNIYLQNGPNRIGRLYKKAIYLQYTDETFRTIIEKPVWLGFLGPIIKAETGDRVYVHFKNFASRPYTFHAHGMTYYKEHEGAIYPDNTTDFQKADDKVHPGEQYTYILHANPEQGPGKEDSNCVTRIYHSHIDAPKDIASGLIGPLIHCRKDSLDKEKEKNIDQEFVVMFSVVDENLSWYLEDNIKTYCSEPEKVEPDNEDFKESNRMYSVNGYSFGSLPGLSMCAEDRVKWYLFGMGNEIDVHAAFFHGQVLTNKNYRIDTINLFPATLFDAFMVAQNPGEWMLSCQNLNHLKAGLQAFFRVQDCKKTSSEDAIHGKHVRHYYIAAEEIIWNYAPSGIDTFTKENLTAPGSASEVFFTRGSTRIGGSYKKLVYREYKDASFTNRKERGPEEEHLGILGPVIWAEVGDTIRVTFRNKGAYPLSIEPTGVRVSKSQEGTYYASHYISSSENVPPSASHVAPKETFTYEWTVPKEVGPTYKDPVCLTKMYYSAVDPTKDIFTGLIGPMKICKKGSLLANGRLKDVDKEFYLFPTVFDENESLLLDDNIQMFTTEPNKVDKENEDFQESNKMHSMNGFMYGNQPGLNMCQGDSVVWYLFSAGNEVDVHGIYFSGNTYLSRGERRDTANLFPQTSLRLFMQPDTAGTFDVECLTTDHYTGGMKQKYTVNQCKQLNENSYLYLGERTYYIAAVEVEWDYSPSREWEKELHHSQERNVSNAFLDKGEFYIGSKYKKVVYRQFTDSTFQVPVQRKAKEEHLGILGPQLHADVGDKVNIVFKNTATRPYSIHAHGVKTESPTVIPTVPGETRTYVWKIPERSGAGIDDSPCIPWVYYSTVDQVKDLYSGLIGPLIVCRKPYLKVFNPIKNLEFSLLFLVFDENESWYLDDNIKTYSDHPEKVDKANDEFIESNKMHAINGRMFGNLQGLTMHVGDEVNWYLMGMGNEIDLHTVHFHGHSFQYQHRGIYTSDVFDIFPGTYQTLEMFPKTSGTWLLHCHVTDHIHAGMETTYTVLPNEETKSG
**Q.** What does the source list for B2?
**A.** Km ([1]; other: pH 4.1, pH 4.1, 30.0 °C): 110 ± 40 µM; kcat ([1]; other: pH 4.1, pH 4.1, 30.0 °C): 9.3±1.3 turnover per minute

B3: bilirubin oxidase (Myrothecium verrucaria) (Albifimbria verrucaria) (protein)
chain: VAQISPQYPMFTVPLPIPPVKQPRLTVTNPVNGQEIWYYEVEIKPFTHQVYPDLGSADLVGYDGMSPGPTFQVPRGVETVVRFINNAEAPNSVHLHGSFSRAAFDGWAEDITEPGSFKDYYYPNRQSARTLWYHDHAMHITAENAYRGQAGLYMLTDPAEDALNLPSGYGEFDIPMILTSKQYTANGNLVTTNGELNSFWGDVIHVNGQPWPFKNVEPRKYRFRFLDAAVSRSFGLYFADTDAIDTRLPFKVIASDSGLLEHPADTSLLYISMAERYEVVFDFSDYAGKTIELRNLGGSIGGIGTDTDYDNTDKVMRFVVADDTTQPDTSVVPANLRDVPFPSPTTNTPRQFRFGRTGPTWTINGVAFADVQNRLLANVPVGTVERWELINAGNGWTHPIHIHLVDFKVISRTSGNNARTVMPYESGLKDVVWLGRRETVVVEAHYAPFPGVYMFHCHNLIHEDHDMMAAFNATVLPDYGYNATVFVDPMEELWQARPYELGEFQAQSGQFSVQAVTERIQTMAEYRPYAAADE
**Q.** Which Km [1, 4] does the source give for B3 here?
**A.** The Km was 120 ± 10 µM.

**Q.** What about the kcat [1, 4] of the same protein?
**A.** The kcat was 1310±40 turnover per minute.
